Measurements reported in paper PMC3492551 (Nature structural & molecular biology, 2012).

Experiments:
UHRF1 126-280 [1] = biological target: UHRF1 126-280 (UniProt Q96T88); assay: biotin-peptide streptavidin pulldown, western blot; conditions: sites S10
UHRF1 126-280 [2] = biological target: UHRF1 126-280 (UniProt Q96T88); assay: histone peptide microarray; conditions: sites S10
MPP8 50-118 = MPP8 50-118 (UniProt Q99549); assay: fluorescence polarization titration; conditions: reference: H3K9me3 peptide; sites S10
[3] = biological target: T1, UHRF1 tandem Tudor domain (TTD), residues 126-280 (human, UniProt Q96T88 126-280); assay: NMR titration
T1 sequence (looked up): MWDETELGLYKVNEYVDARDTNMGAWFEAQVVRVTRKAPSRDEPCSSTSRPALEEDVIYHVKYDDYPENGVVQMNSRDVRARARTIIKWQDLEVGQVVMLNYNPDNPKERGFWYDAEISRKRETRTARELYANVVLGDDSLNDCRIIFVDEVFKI

histone H3 (from UniProt P68431) H3K9me3S10p peptide
binding against the reference (UHRF1 126-280 [1]; reference: H3K9me3 peptide): same
binding against the reference (UHRF1 126-280 [2]; reference: H3K9me3 peptide): same

histone H3 (from UniProt P68431) H3K9me2S10p peptide
binding against the reference (UHRF1 126-280 [1]; reference: H3K9me2 peptide): same
binding against the reference (UHRF1 126-280 [2]; reference: H3K9me2 peptide): same

histone H3 1-20 (from UniProt P68431) H3K9me3S10p peptide
KD (MPP8 50-118): lost; reference 0.23

ARTKQTARKST (not fully specified; trimethyl-lysine at 9; phosphoserine at 10) [doubly modified H3 peptide (residues 1-11, ARTKQTARKme3SpT)]
binding result [3]: binds
